Source: patent publication US6861578B1, “Method for plant protection against insects or nematodes by transformation with a nucleic acid encoding equistatin” (Plant Research International B.V., priority 1997, dated 2005)

Tests used:
cathepsin D = cathepsin D (Homo sapiens, UniProt P07339); assay: Cathepsin D inhibition, steady-state hydrolysis of chromophoric substrate; active site titration; type: biochemical
Description: Residual activity is expressed as percent of control activity in samples containing no inhibitor.
The kinetics of binding of equistatin to cathepsin D was performing using a synthetic substrate which contains a chromophore, such as a nitrophenylalanine residue, in the P1′ position. The assay sensitivity, afforded by H-Pro-Thr-Glu-Phe*Nph-Arg-Leu-OH (SEQ ID NO:8) as substrate, alowed us to use 6.4 nM concentration of the enzyme as a minimal concentration in the test.

[1] = system: tri-peptidil-peptidase and endoprotease activity of Colorado potato beetle larval gut extracts; assay: Tri-peptidil-peptidase and endoprotease activity of Colorado potato beetle gut extract, pGlu-Phe-Leu-pNA; type: biochemical, Leptinotarsa decemlineata
Excerpt: (§1) Guts of final instar Colorado potato beetle larvae reared on methyl jasmonate induced plants were isolated and extracted essentially as described (Bolter and Jongsma, J. Insect Physiol. 41: 1071-1078). In these gut extracts the proteases that are sensitive to the protease inhibitors of potato are already complexed. The residual protease activity is composed of potato protease-inhibitor-insensitive proteases which were induced in response to the methyl jasmonate induced potato inhibitors. These proteases are the proteases that render the beetle larvae insensitive to protease inhibitor defense of the potato plant. Wle tested a broad range of different cysteisie protease inhibitors for activity specifically against these induced potato protease inhibitor-insensitive cysteine protesses. Nearly all of these inhibitors were purified at the Jozef Stefan Institute in Slovenia. Testing their potential against Colorado potato beetle was done using both general protein substrates (azocasein, table 2) as well as specific synthetic substrates (L-Arg-pNA, table 3; pGlu-Phe-Leu-pNA, table 4; Z-Phe-Arg-pNA, table 5; Z-Arg-Arg-pNA, table 6). In specific cases inhibitors were tested at two concentrations, eauimolar and in excess to the protease, in order to obtain an indication of the tightness of the complex. […] Importantly, this class of inhibitors was capable of inhibiting nearly all general cysteine protease activity. The equistatin peptide molecule and a functional derivative thereof were not very active against the aminopeptidase-like cysteine protease activity. […] The best combination of inhibitors for full toxicity against the Colorado potato beetle would therefore be a combination of equistatin or p41 invariant chain fragment and stefin-like inhibitors.

[2] = system: endoprotease activity of Colorado potato beetle larval gut extracts; assay: Broad spectrum endoprotease activity of Colorado potato beetle gut extract, Z-Phe-Arg-pNA; type: biochemical, Leptinotarsa decemlineata
Excerpt: as §1

[3] = system: endoprotease activity of Colorado potato beetle larval gut extracts; assay: Narrow spectrum endoprotease activity of Colorado potato beetle gut extract, Z-Arg-Arg-pNA; type: biochemical, Leptinotarsa decemlineata
Excerpt: as §1

thrips protease activity = assay: Protease activity of adult western flower thrips extract, FITC-hemoglobin; type: biochemical, Frankliniella occidentalis; parameters: inhibition of protease activity: concentration or dose not given beside the values
Description: (§2) Adult western flower thrips (Frankliniella occidentalis) and leafmirer flies (Liriomyza trifolii) adult were harvested from a culture maintained on chrysanthemum plants and complete thrips and flies were homogenized in extraction on buffer (200 mM β-alanine-HCl, pH 3.5) in a volume of 5 times the weight of the insects. The buffer pH was at the previously determined pH optimum of protease activity towards hemoglobin. Final instar Colorado potato beetle larvae maintained on potato plants as described in example 5 were checked for gut aspartic protease activity by preparing a total gut extract in pH 3 buffer which is optimal for Colorado potato beetle aspartic proteases (200 mM glycine, pH 3). Guts were homogenized in 100 μl buffer per gut. Third instar western corn rootworm larvae maintained on corn roots were used to remove the guts. Ten guts were homogenized in 100 μl water and spinned twice to remove insoluble material. Two types of buffers were used in the enzymatic assay. One with a pH presumably favoring cysteine proteases (50 mM MES, pH 6.5; 0.6 mg/ml L-cysteine) and one for detecting aspartic proteases (200 mM glycine, pH 3). Supernatants were stored at −20° C.
(§3) 2 μl gut extract was combined with 2 μl inhibitor (2 mM pepstatin in methanol, 4 mM E64 in water, 2 mg/ml recombinant equistatin in water. The concentration of the other proteinaceous inhibitors was not known exactly). Appropriate buffers were added to a final volume of 100 μl. After 15′ preincubation 20 μl substrate (5 mg/ml FITC-hemoglobin) was added and incubated for 30-45 min at 37 C.
(§4) Reaction was stopped by the addition of 100 μl 10% TCA. Tubes were centrifuged and 100 μl supernatant mixed with 100 μl 10 N NaOH was measured on a fluorimeter for the extent of hemoglobin hydrolysis. Measurements were done in duplicate on one (thrips, leafminer and western corn rootworm), or three (Colorado potato beetle) different gut extracts and varied by a maximum of +/−5%.

[4] = system: Colorado potato beetle proteases; assay: Protease activity of Colorado potato beetle larval gut extract at pH 3, FITC-hemoglobin; type: biochemical, Leptinotarsa decemlineata; parameters: inhibition of total protease activity / increase of inhibition by addition of equistatin to E64 / increase of inhibition by addition of equistatin to pepstatin: concentration or dose not given beside the values
Description: as §2, §3, §4

thrips females = assay: Oviposition rate of thrips females in Murai cages; type: in vivo, Frankliniella occidentalis
Description: A sample of 142 μM recombinant equistatin purified as described in example 4 was assayed for activity towards thrips. Sample was acidified with HCl to pH 3 to stabilize the equistatin protein. Controls contained acidified water or 2.5 mg/ml BSA dissolved in acidified water. The oviposition rate of thrips females was assayed using so-called Murai cages. Briefly, perspex tubes closed on side with a fine gauze were inoculated with 10 females and bee pollen. Tubes were closed with parafilm and 300 μl fluid was placed on top of the parafilm. A second layer of parafilm enclosed the fluid. Pollen and sample fluid were replaced every day for two days. Eggs deposited in the liquid sample were counted on day 2.

Chain of cathepsin D (P07339 65-412, species assumed): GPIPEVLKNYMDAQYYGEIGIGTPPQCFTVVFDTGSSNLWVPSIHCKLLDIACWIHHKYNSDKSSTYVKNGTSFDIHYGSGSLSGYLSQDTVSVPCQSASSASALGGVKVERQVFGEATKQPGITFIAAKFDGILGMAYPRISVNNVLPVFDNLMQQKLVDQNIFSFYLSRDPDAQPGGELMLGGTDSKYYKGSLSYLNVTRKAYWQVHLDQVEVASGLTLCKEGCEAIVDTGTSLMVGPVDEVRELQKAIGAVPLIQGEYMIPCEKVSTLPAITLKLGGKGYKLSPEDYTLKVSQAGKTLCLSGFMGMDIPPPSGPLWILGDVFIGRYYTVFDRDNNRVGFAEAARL

B1: equistatin: cysteine/aspartic protease inhibitor from sea anemone Actinia equina with three type I repeated thyroglobulin domains; purified or recombinant from E. coli (protein)
chain: SLTKCQQLQASANSGLIGTYVPQCKETGEFEEKQCWGSTGYCWCVDEDGKEILGTKIRGSPDCSRRKAALTLCQMMQAIIVNVPGWCGPPSCKADGSFDEVQCCASNGECYCVDKKGKELEGTRQQGRPTCERHLSECEEARIKAHSNSLRVEMFVPECLEDGSYNPVQCWPSTGYCWCVDEGGVKVPGSDVRFKRPTC
modifications: left off: large carriers; small tags and cut ends
notes: purified or recombinant from E. coli
With B1 the Ki (cathepsin D; cathepsin D, steady state velocity, chromophoric substrate) was 0.3 nM, the “equistatin needed for the saturation of 1 mol of cathepsin D” value (cathepsin D; titration of cathepsin D with equistatin (FIG. 12)) was 1 mol and the “% of residual activity, equimolar” value ([1]; equimolar) was 10%. For the same molecule, the “% of residual activity, excess inhibitor” value ([1]; excess inhibitor) was −5%, the “% of residual activity, equimolar” value ([2]; equimolar) was 30% and the “% of residual activity, excess inhibitor” value ([2]; excess inhibitor) was 20%. The “% of residual activity, equimolar” value ([3]; equimolar) was 20%, the “% of residual activity, excess inhibitor” value ([3]; excess inhibitor) was −5% and the residual protease activity (thrips protease activity; thrips pH 3.5, equistatin purified from sea anemone) was 5%. For the same molecule, the “inhibition of protease activity” value (thrips protease activity; thrips, pH 3.5) was 95%, the “increase of inhibition by addition of equistatin to E64” value ([4]; Colorado potato beetle, pH3) was 42% and the “increase of inhibition by addition of equistatin to pepstatin” value ([4]; Colorado potato beetle, pH3) was 12%. For the same molecule, the “inhibition of both aspartic and cysteine protease activity” value ([4]; Colorado potato beetle, pH3) was “more than 50%”, the “inhibition of total protease activity” value ([4]; Colorado potato beetle, pH3) was 62% and the residual protease activity ([4]; colorado potato beetle pH 3, recombinant equistatin) was 36%. For the same molecule, the “Oviposition rate, eggs per female per day” value (thrips females; 142 μM recombinant equistatin, pH 3, eggs counted on day 2) was 0.3 eggs per female per day and the “Oviposition rate, relative percentage” value (thrips females; relative to BSA diet = 100%) was 17%.
